Assay results from patent publication US20140256621A1 (published 2014).

What was measured:
[1] = target: T1, chimeric Hu-Leptin/Mu-EPO receptor (human; mouse, UniProt P48357 22-839; P14753 250-507); experiment: cell-based or functional assay
T1 sequence (looked up): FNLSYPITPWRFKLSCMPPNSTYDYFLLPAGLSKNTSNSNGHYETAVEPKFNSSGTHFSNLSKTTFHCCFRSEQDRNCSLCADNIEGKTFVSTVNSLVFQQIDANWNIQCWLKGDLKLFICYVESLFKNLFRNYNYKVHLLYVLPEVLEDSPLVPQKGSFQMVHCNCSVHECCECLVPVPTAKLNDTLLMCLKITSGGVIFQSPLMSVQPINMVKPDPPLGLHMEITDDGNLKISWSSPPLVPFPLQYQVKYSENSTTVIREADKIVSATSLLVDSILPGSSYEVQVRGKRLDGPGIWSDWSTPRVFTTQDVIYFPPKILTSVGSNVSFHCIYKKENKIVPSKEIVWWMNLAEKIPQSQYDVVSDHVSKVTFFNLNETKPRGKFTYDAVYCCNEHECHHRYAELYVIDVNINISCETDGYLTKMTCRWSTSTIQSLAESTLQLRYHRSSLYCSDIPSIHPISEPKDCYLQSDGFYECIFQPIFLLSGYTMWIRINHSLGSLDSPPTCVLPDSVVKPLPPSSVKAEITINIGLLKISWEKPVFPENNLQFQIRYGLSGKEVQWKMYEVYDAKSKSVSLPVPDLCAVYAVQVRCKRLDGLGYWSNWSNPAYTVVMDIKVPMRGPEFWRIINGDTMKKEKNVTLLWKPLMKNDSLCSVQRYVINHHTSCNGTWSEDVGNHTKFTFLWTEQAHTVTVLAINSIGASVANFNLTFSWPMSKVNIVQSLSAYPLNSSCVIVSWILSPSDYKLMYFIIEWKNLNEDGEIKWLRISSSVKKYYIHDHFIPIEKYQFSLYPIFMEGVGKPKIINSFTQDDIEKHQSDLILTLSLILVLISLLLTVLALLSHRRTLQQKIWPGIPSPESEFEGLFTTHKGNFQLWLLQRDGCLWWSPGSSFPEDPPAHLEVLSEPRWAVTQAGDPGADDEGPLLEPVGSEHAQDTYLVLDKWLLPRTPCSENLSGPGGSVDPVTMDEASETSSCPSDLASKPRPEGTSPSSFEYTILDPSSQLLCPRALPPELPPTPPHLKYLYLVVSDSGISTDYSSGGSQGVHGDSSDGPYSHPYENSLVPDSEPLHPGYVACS

[2] = target: T2, Rat SA (rat, UniProt P02770 25-608); experiment: SPR (BioRad ProteOn XPR36), albumin amine-coupled on GLC chip, polypeptide injected from 5 nM in 3-fold dilutions, 25 C; relative KD
T2 construct: also called rat serum albumin
Procedure: (§1) All studies were conducted on a BioRad ProteOn XPR36 system using a GLC sensor chip at 25 degrees C. For amine coupling the GLC chip was activated for 5 minutes using a 1:1 mixture of sulfo-NHS/EDC diluted 30-fold from the initial stock in water as shown below. Each albumin sample was diluted to 25 ug/ml in 10 mM Na Acetate pH 5.0 and injected for 5 minutes over separate sensor surfaces. Each surface was then blocked with 1 M ethanolamine pH 8.5. Each albumin was coupled at a density of 2000-5000 in resonance units.
(§2) The binding of an engineered polypeptide was tested using 5 nM as the highest concentration in a three-fold dilution series. The running buffer contained 10 mM HEPES pH 7.4, 150 mM NaCl, 3 mM EDTA and 0.005% tween-20. All samples were tested using a 3-fold dilution series. Each concentration series was tested in duplicate. The dissociation phase for the highest concentration […] was monitored for 3 hours.

[3] = target: T3, Monkey SA (monkey); experiment: as above
T3 construct: also called monkey serum albumin
Procedure: as §1, §2

[4] = target: T4, Dog SA (dog, UniProt P49822 25-608); experiment: as above
T4 construct: also called dog serum albumin
Procedure: as §1, §2

[5] = target: T5, Mouse SA (mouse, UniProt P07724 25-608); experiment: as above
T5 construct: also called mouse serum albumin
Procedure: as §1, §2

[6] = target: T6, human serum albumin (human, UniProt P02768 25-609); experiment: as above
T6 construct: also called HSA; Albucult (Novozyme)
Procedure: as §1, §2

T3 sequence (A2V9Z4 25-608): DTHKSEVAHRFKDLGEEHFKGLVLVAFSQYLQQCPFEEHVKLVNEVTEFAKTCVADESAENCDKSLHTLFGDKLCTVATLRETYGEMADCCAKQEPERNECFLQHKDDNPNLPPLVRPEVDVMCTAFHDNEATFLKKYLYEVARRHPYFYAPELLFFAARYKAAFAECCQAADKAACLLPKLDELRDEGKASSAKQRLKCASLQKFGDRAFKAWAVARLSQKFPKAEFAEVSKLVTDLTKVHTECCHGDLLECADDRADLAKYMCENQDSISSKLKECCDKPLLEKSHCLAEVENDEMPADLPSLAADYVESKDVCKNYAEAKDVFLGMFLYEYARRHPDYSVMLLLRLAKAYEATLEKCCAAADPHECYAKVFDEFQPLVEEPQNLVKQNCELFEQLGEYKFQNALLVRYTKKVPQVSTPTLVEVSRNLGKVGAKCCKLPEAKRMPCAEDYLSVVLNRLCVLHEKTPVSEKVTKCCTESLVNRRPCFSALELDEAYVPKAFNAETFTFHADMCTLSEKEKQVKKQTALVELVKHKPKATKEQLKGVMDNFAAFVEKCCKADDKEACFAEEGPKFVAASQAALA
T4 sequence (P49822 25-608 limits assumed): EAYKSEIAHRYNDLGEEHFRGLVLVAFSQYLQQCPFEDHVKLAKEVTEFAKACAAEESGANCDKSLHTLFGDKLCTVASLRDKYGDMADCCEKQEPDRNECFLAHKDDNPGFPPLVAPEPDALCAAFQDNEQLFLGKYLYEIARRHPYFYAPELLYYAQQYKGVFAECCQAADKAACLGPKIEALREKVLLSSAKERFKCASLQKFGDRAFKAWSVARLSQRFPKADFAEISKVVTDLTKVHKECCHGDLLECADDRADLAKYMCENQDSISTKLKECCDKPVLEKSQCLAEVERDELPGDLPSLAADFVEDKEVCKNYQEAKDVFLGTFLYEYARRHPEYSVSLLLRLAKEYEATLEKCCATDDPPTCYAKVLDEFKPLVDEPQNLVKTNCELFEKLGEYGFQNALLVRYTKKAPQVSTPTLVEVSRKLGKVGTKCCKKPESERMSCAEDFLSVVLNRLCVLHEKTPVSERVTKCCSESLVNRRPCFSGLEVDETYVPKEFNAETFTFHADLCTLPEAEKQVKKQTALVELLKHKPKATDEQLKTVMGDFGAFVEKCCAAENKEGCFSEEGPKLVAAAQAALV
T2 sequence (P02770 25-608 limits assumed): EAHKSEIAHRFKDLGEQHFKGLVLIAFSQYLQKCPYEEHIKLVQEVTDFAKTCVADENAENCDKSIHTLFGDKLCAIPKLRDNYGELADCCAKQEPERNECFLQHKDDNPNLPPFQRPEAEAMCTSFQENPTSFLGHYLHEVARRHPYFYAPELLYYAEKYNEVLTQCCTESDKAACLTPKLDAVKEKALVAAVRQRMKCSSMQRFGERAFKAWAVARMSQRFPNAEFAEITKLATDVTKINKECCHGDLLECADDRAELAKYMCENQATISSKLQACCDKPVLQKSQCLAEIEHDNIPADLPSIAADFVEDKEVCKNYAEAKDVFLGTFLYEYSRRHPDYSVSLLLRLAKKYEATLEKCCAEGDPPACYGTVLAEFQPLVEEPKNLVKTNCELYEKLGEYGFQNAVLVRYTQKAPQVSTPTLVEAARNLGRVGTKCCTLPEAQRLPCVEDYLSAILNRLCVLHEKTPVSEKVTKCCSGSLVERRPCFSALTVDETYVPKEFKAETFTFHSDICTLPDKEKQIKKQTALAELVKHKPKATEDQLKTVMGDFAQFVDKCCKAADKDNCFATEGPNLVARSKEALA
T6 sequence (P02768 25-609 limits assumed): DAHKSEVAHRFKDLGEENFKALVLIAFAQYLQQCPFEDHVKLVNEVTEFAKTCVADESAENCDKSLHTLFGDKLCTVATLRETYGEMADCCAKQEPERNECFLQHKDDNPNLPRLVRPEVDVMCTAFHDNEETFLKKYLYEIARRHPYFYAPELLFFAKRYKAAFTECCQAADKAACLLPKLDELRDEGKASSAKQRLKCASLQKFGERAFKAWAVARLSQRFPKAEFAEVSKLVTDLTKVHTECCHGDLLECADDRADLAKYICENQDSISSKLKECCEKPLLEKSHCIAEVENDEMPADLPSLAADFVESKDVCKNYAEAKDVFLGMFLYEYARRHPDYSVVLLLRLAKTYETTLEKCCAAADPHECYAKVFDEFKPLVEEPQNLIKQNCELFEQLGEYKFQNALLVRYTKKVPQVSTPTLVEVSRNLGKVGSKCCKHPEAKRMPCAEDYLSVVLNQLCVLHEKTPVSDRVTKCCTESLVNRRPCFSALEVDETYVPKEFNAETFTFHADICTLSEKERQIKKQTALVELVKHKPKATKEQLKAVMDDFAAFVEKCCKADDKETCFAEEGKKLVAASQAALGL

B1: Cmpd 9 (other)
chain: MGSLAEAKEAANAELDSYGVSDFYKRLIDKAKTVEGVEALKDAILAALPTGGGGSGGGSGGGSGGGSASPIQRVQDDTKTLIKTIITRINDISPPQGVSSRPRVAGLDFIPRVQSVRTLSGMDQILATYQQILTSLQSRNVIQISNDLENLRDLLHVLAFSKSCPVPRARGSDTIKGLGNVLRASVHSTEVVALSRLKAALQDMLRQLDRNPGC
With B1 the “EC50 nM (Obeca STAT5 assay)” value [1] was 0.433 nM.

B2: Cmpd 64 (other)
chain: MLAEAKEAANAELDSYGVSDFYKRLIDKAKTVEGVEALKDAILAALPTGGGGSGGGSGGGSGGGSASPIQRVQDDTKTLIKTIITRINDISPPQGVSSRPRVAGLDFIPRVQSVRTLSGMDQILATYQQILTSLQSRNVIQISNDLENLRDLLHVLAFSKSCPVPRARGSDTIKGLGNVLRASVHSTEVVALSRLKAALQDMLRQLDRNPGC
B2 was tested, and the “EC50 nM (Obeca STAT5 assay)” value [1] was 0.634 nM.

B3: Cmpd 1 (other)
chain: MGSLAEAKEAANAELDSYGVSDFYKRLIDKAKTVEGVEALKDAILAALPTGGGGASVPIQKVQDDTKTLIKTIVTRINDISHTQSVSSKQKVTGLEFIPGLHPILTLSKMDQTLAVYQQILTSMPSRNVIQISNDLENLRDLLHVLAFSKSCHLPQASGLETLESLGGVLEASGYSTEVVALSRLQGSLQDMLQQLDLSPGC
B3 was tested, and the “EC50 nM (Obeca STAT5 assay)” value [1] was 0.908 nM.

B4: Cmpd 68 (other)
chain: MLAEAKEAANAELDSYGVSDFYKRLIDKAKTVEGVEALKDAILAALPTGGGGSGGGSGGGSGGGSASVPIQKVQDDTKTLIKTIVTRINDISHTQSVSSKQKVTGLEFIPGLHPILTLSKMDQTLAVYQQILTSMPSRNVIQISNDLENLRDLLHVLAFSKSCHLPQASGLETLESLGGVLEASGYSTEVVALSRLQGSLQDMLQQLDLSPGC
With B4 the “EC50 nM (Obeca STAT5 assay)” value [1] was 0.71 nM.

B5: Cmpd 70 (other)
chain: MGSLAEAKVLANRELDKYGVSDFYKRLIDKAKTVEGVEALKDAILAALPTGGEGGEGGEGGEGGEGGEASVPIQKVQDDTKTLIKTIVTRINDISHTQSVSSKQKVTGLEFIPGLHPILTLSKMDQTLAVYQQILTSMPSRNVIQISNDLENLRDLLHVLAFSKSCHLPQASGLETLESLGGVLEASGYSTEVVALSRLQGSLQDMLQQLDLSPGC
For B5, the “EC50 nM (Obeca STAT5 assay)” value [1] was 0.941 nM.

B6: Cmpd 69 (other)
chain: MGSLAEAKVLANRELDKYGVSDFYKRLIEKAKTVEGVEALKEAILAALPTGGEGGEGGEGGEGGEGGEASVPIQKVQDDTKTLIKTIVTRINDISHTQSVSSKQKVTGLEFIPGLHPILTLSKMDQTLAVYQQILTSMPSRNVIQISNDLENLRDLLHVLAFSKSCHLPQASGLETLESLGGVLEASGYSTEVVALSRLQGSLQDMLQQLDLSPGC
With B6 the “EC50 nM (Obeca STAT5 assay)” value [1] was 0.832 nM.

B7: PEP07986-negative linker-A500 (Compound 12) (other)
chain: MGSLAEAKEAANAELDSYGVSDFYKRLIDKAKTVEGVEALKDAILAALPTGGEGGEGGEGGEGGEGGEASVPIQKVQDDTKTLIKTIVTRINDISHTQSVSSKQKVTGLEFIPGLHPILTLSKMDQTLAVYQQILTSMPSRNVIQISNDLENLRDLLHVLAFSKSCHLPQASGLETLESLGGVLEASGYSTEVVALSRLQGSLQDMLQQLDLSPGC
notes: also called Cmpd 12; PEP07986-Negative-A500
B7 was tested, and the “EC50 nM (Obeca STAT5 assay)” value [1] was 0.947 nM, the Kd [2] was 0.01 nM and the Kd [3] was 0.4 nM. For the same binder, the Kd [4] was 1.81 nM, the Kd [5] was 1.94 nM and the Kd [6] was 0.27 nM.

B8: PEP07986-neutral linker-A500 (Compound 2) (other)
chain: MGSLAEAKEAANAELDSYGVSDFYKRLIDKAKTVEGVEALKDAILAALPTGGGGSGGGSGGGSGGGSASVPIQKVQDDTKTLIKTIVTRINDISHTQSVSSKQKVTGLEFIPGLHPILTLSKMDQTLAVYQQILTSMPSRNVIQISNDLENLRDLLHVLAFSKSCHLPQASGLETLESLGGVLEASGYSTEVVALSRLQGSLQDMLQQLDLSPGC
notes: also called Cmpd 2; PEP07986-Neutral-A500
With B8 the “EC50 nM (Obeca STAT5 assay)” value [1] was 0.725 nM, the Kd [2] was 0.023 nM and the Kd [3] was 0.405 nM. The Kd [4] was 1.31 nM, the Kd [5] was 1.66 nM and the Kd [6] was 0.152 nM.

B9: Cmpd 41 (other)
chain: MGSLAQAKEAANRELDSYGVSDFYKRLIDKAKTVEGVEALKDAILAALPTGGGGSGGGSGGGSGGGSASVPIQKVQDDTKTLIKTIVTRINDISHTQSVSSKQKVTGLEFIPGLHPILTLSKMDQTLAVYQQILTSMPSRNVIQISNDLENLRDLLHVLAFSKSCHLPQASGLETLESLGGVLEASGYSTEVVALSRLQGSLQDMLQQLDLSPGC
With B9 the “EC50 nM (Obeca STAT5 assay)” value [1] was 0.506 nM.

B10: Cmpd 55 (other)
chain: MGSLAEAKVLANRELDKYGVSDFYKRLIDKAKTVEGVEALKDAILAALPTGGGGSGGGSGGGSGGGSASVPIQKVQDDTKTLIKTIVTRINDISHTQSVSSKQKVTGLEFIPGLHPILTLSKMDQTLAVYQQILTSMPSRNVIQISNDLENLRDLLHVLAFSKSCHLPQASGLETLESLGGVLEASGYSTEVVALSRLQGSLQDMLQQLDLSPGC
For B10, the “EC50 nM (Obeca STAT5 assay)” value [1] was 0.639 nM.

B11: Cmpd 48 (other)
chain: MGSLAEAKEAANRELDAYGVSDFYKRLIDKAKTVEGVEALKDAILAALPTGGGGSGGGSGGGSGGGSASVPIQKVQDDTKTLIKTIVTRINDISHTQSVSSKQKVTGLEFIPGLHPILTLSKMDQTLAVYQQILTSMPSRNVIQISNDLENLRDLLHVLAFSKSCHLPQASGLETLESLGGVLEASGYSTEVVALSRLQGSLQDMLQQLDLSPGC
B11 was tested, and the “EC50 nM (Obeca STAT5 assay)” value [1] was 0.553 nM.

B12: Cmpd 63 (printed with SEQ ID NO: 659 in Table X4) (other)
chain: MGSLAEAKEAANAELDSYGVSDFYKRLIDKAKTVEGVEALKDAILAALPTGGGGSGGGSGGGSGGGSASVPIQKVQDDTKTLIKTIVTRINDISHTQSVSSKQKVTGLEFIPGLHPILTLSKMDQTLAVYQQILTSMPSRNVIQISNDLENLRDLLHVLAFSKSCSLPQASGLETLESLGEVLEASGYSTEVVALSRLQGSLQDILQQLDLSPEC
With B12 the “EC50 nM (Obeca STAT5 assay)” value [1] was 0.785 nM.

B13: Cmpd 71 (other)
chain: MLAEAKEAANAELDSYGVSDFYKRLIDKAKTVEGVEALKDAILAALPTGGGGSGGGSGGGSGGGSASPIQRVQDDTKTLIKTIITRINDISHTQSVSSKQKVTGLDFIPGLHPILTLSGMDQILATYQQILTSLQSRNVIQISNDLENLRDLLHVLAFSKSCPVPRARGSDTIKGLGNVLRASVHSTEVVALSRLKAALQDMLRQLDRNPGC
For B13, the “EC50 nM (Obeca STAT5 assay)” value [1] was 1.26 nM.
